molecular target: T1, efl-2 (Y48C3A.17) (Caenorhabditis elegans) (UniProt A5HWA8)
T1 sequence: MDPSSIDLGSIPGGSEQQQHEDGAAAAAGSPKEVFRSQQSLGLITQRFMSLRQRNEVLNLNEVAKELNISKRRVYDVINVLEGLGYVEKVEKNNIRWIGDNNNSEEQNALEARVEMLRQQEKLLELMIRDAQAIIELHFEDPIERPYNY

| Sequence | binding signal (PBM E-score (-0.5 to 0.5)) |
| --- | --- |
| ACCCGCGC (double strand) [8-mer ACCCGCGC] | 0.486 |
| ACGCGCGC (double strand) [8-mer ACGCGCGC] | 0.49 |
| AGCGCGCC (double strand) [8-mer AGCGCGCC] | 0.488 |
| AGGCGCGC (double strand) [8-mer AGGCGCGC] | 0.487 |
| ATGCGCGC (double strand) [8-mer ATGCGCGC] | 0.485 |
| CGCGCGCA (double strand) [8-mer CGCGCGCA] | 0.491 |
| CGCGCGCC (double strand) [8-mer CGCGCGCC] | 0.488 |
| GAGCGCGC (double strand) [8-mer GAGCGCGC] | 0.486 |
| GCGCGCAC (double strand) [8-mer GCGCGCAC] | 0.487 |
| GCGCGCCA (double strand) [8-mer GCGCGCCA] | 0.49 |
| GCGCGCGA (double strand) [8-mer GCGCGCGA] | 0.485 |

molecular target: T2, elt-6 (F52C12.5) (Caenorhabditis elegans) (UniProt G5EGN3)
T2 sequence: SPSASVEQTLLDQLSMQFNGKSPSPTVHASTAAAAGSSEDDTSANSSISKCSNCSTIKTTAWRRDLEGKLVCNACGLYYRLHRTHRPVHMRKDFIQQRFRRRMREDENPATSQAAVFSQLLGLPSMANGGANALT

| Sequence | binding signal (PBM E-score (-0.5 to 0.5)) |
| --- | --- |
| AGTGATAA (double strand) [8-mer AGTGATAA] | 0.495 |
| CTTATCAC (double strand) [8-mer CTTATCAC] | 0.496 |
| GCTTATCA (double strand) [8-mer GCTTATCA] | 0.493 |
| GGTGATAA (double strand) [8-mer GGTGATAA] | 0.494 |

molecular target: dmd-4 (C27C12.6) (Caenorhabditis elegans) (UniProt Q18248)
Sequence (Q18248 1-114): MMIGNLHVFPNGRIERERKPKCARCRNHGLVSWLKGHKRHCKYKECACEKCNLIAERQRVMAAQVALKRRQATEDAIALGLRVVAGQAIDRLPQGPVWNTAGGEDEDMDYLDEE

| Sequence | binding signal (PBM E-score (-0.5 to 0.5)) |
| --- | --- |
| AATGTATC (double strand) [8-mer AATGTATC] | 0.494 |
| ATGTATCA (double strand) [8-mer ATGTATCA] | 0.493 |
| ATTGTATC (double strand) [8-mer ATTGTATC] | 0.491 |
| TGTAACAA (double strand) [8-mer TGTAACAA] | 0.483 |
| TGTATCAA (double strand) [8-mer TGTATCAA] | 0.496 |

molecular target: T3, T22H9.4 (T22H9.4) (Caenorhabditis elegans) (UniProt Q9TXN8)
T3 sequence: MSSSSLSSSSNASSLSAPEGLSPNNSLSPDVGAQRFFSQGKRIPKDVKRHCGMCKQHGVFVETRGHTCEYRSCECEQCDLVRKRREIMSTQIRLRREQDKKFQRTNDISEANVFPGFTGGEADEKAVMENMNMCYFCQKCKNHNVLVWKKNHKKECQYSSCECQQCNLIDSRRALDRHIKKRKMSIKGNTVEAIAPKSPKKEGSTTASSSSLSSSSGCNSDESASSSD

| Sequence | binding signal (PBM E-score (-0.5 to 0.5)) |
| --- | --- |
| ATTCAACA (double strand) [8-mer ATTCAACA] | 0.49 |
| ATTGCAAC (double strand) [8-mer ATTGCAAC] | 0.493 |
| ATTTCAAC (double strand) [8-mer ATTTCAAC] | 0.497 |
| ATTTTAAC (double strand) [8-mer ATTTTAAC] | 0.491 |
| CGTTGCAA (double strand) [8-mer CGTTGCAA] | 0.488 |
| GTTAAAAA (double strand) [8-mer GTTAAAAA] | 0.494 |
| GTTGAAAA (double strand) [8-mer GTTGAAAA] | 0.495 |
| GTTGCAAA (double strand) [8-mer GTTGCAAA] | 0.493 |
| GTTGCAAC (double strand) [8-mer GTTGCAAC] | 0.489 |
| TGTAGAAA (double strand) [8-mer TGTAGAAA] | 0.489 |
| TGTCGAAA (double strand) [8-mer TGTCGAAA] | 0.495 |
| TGTTAAAA (double strand) [8-mer TGTTAAAA] | 0.496 |
| TGTTACAA (double strand) [8-mer TGTTACAA] | 0.488 |
| TGTTGAAA (double strand) [8-mer TGTTGAAA] | 0.499 |
| TGTTGCAA (double strand) [8-mer TGTTGCAA] | 0.499 |

molecular target: T4, mab-3 (Y53C12B.5) (Caenorhabditis elegans) (UniProt O18214)
T4 sequence: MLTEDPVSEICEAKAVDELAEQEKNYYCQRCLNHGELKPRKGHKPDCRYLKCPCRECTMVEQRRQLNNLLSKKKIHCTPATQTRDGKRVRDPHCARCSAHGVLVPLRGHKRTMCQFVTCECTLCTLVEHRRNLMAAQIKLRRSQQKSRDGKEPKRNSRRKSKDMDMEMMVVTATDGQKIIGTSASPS

| Sequence | binding signal (PBM E-score (-0.5 to 0.5)) |
| --- | --- |
| ACGCAACA (double strand) [8-mer ACGCAACA] | 0.484 |
| ATGCAACA (double strand) [8-mer ATGCAACA] | 0.482 |
| ATGTTGCC (double strand) [8-mer ATGTTGCC] | 0.477 |
| ATGTTGCG (double strand) [8-mer ATGTTGCG] | 0.499 |
| ATTGTTGC (double strand) [8-mer ATTGTTGC] | 0.486 |
| CCGCAACA (double strand) [8-mer CCGCAACA] | 0.482 |
| CGCAACAA (double strand) [8-mer CGCAACAA] | 0.487 |
| GATGTTGC (double strand) [8-mer GATGTTGC] | 0.495 |
| GCAACATA (double strand) [8-mer GCAACATA] | 0.493 |
| GTTGCAAC (double strand) [8-mer GTTGCAAC] | 0.479 |
| TCGCAACA (double strand) [8-mer TCGCAACA] | 0.499 |
| TGGCAACA (double strand) [8-mer TGGCAACA] | 0.481 |
| TGTTGCAA (double strand) [8-mer TGTTGCAA] | 0.497 |

tested on: T5, C34D1.1 (C34D1.1) (Caenorhabditis elegans)
T5 sequence: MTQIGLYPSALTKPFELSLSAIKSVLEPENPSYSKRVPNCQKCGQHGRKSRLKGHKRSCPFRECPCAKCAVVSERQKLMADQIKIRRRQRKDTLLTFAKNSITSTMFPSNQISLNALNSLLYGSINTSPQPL

| Sequence | binding signal (PBM E-score (-0.5 to 0.5)) |
| --- | --- |
| TGAAACAA (double strand) [8-mer TGAAACAA] | 0.485 |
| TGTTGCAA (double strand) [8-mer TGTTGCAA] | 0.469 |
| TGTTTCAA (double strand) [8-mer TGTTTCAA] | 0.485 |

molecular target: T6, dmd-6 (F13G11.1) (Caenorhabditis elegans) (UniProt O62159)
T6 sequence: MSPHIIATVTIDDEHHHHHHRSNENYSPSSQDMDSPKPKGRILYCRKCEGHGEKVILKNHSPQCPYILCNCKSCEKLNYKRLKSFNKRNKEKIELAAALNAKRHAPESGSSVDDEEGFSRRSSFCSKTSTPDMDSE

| Sequence | binding signal (PBM E-score (-0.5 to 0.5)) |
| --- | --- |
| AAAAAGTT (double strand) [8-mer AAAAAGTT] | 0.484 |
| AAAAGTTA (double strand) [8-mer AAAAGTTA] | 0.486 |
| AAAATTTA (double strand) [8-mer AAAATTTA] | 0.471 |
| AAATATTT (double strand) [8-mer AAATATTT] | 0.482 |
| AAATGTTA (double strand) [8-mer AAATGTTA] | 0.475 |
| AAATTTAT (double strand) [8-mer AAATTTAT] | 0.479 |
| AAATTTTA (double strand) [8-mer AAATTTTA] | 0.477 |

molecular target: T7, fkh-9 (K03C7.2) (Caenorhabditis elegans) (UniProt Q21187)
T7 sequence: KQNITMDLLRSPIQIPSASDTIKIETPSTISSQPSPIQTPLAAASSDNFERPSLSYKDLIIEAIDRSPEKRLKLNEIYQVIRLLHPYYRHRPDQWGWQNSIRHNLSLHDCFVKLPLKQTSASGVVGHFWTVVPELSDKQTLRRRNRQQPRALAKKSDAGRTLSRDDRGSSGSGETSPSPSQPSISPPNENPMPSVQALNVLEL

| Sequence | binding signal (PBM E-score (-0.5 to 0.5)) |
| --- | --- |
| AAAAACAA (double strand) [8-mer AAAAACAA] | 0.49 |
| AAAACAAC (double strand) [8-mer AAAACAAC] | 0.491 |
| AACAACAA (double strand) [8-mer AACAACAA] | 0.487 |
| AATAACAA (double strand) [8-mer AATAACAA] | 0.494 |
| CAAAACAA (double strand) [8-mer CAAAACAA] | 0.494 |
| CAATAACA (double strand) [8-mer CAATAACA] | 0.488 |
| CATAACAA (double strand) [8-mer CATAACAA] | 0.486 |
| GAAAACAA (double strand) [8-mer GAAAACAA] | 0.489 |
| TAAAAACA (double strand) [8-mer TAAAAACA] | 0.485 |
| TCAAAACA (double strand) [8-mer TCAAAACA] | 0.491 |
| TCATAACA (double strand) [8-mer TCATAACA] | 0.485 |

molecular target: dmd-5 (F10C1.5) (Caenorhabditis elegans) (UniProt Q19291)
Sequence (Q19291 1-125): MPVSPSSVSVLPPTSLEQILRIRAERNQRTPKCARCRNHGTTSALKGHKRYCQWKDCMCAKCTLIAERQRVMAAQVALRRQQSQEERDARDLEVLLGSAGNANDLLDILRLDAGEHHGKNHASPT

| Sequence | binding signal (PBM E-score (-0.5 to 0.5)) |
| --- | --- |
| AATGTATC (double strand) [8-mer AATGTATC] | 0.485 |
| AATTGTTA (double strand) [8-mer AATTGTTA] | 0.478 |
| ACAGTAAC (double strand) [8-mer ACAGTAAC] | 0.482 |
| ACAGTTGC (double strand) [8-mer ACAGTTGC] | 0.489 |
| ACTGTAAC (double strand) [8-mer ACTGTAAC] | 0.49 |
| ACTGTATC (double strand) [8-mer ACTGTATC] | 0.484 |
| ACTGTTGC (double strand) [8-mer ACTGTTGC] | 0.488 |
| ATGTATCA (double strand) [8-mer ATGTATCA] | 0.486 |
| ATGTTACA (double strand) [8-mer ATGTTACA] | 0.475 |
| ATTGTAAC (double strand) [8-mer ATTGTAAC] | 0.481 |
| ATTGTATC (double strand) [8-mer ATTGTATC] | 0.486 |
| ATTGTTAC (double strand) [8-mer ATTGTTAC] | 0.476 |
| TGTAACAA (double strand) [8-mer TGTAACAA] | 0.484 |
| TGTATCAA (double strand) [8-mer TGTATCAA] | 0.49 |
| TGTTACAA (double strand) [8-mer TGTTACAA] | 0.484 |
